The text below walks through data of paper PMC5458078, “Global mapping of CARM1 substrates defines enzyme specificity and substrate recognition” (Nature Communications, 2017).

Assay [1] has as its system total cell lysates derived from MCF7 CARM1 KO cells. Nature of the assay: In vitro methylation of total cell lysates by recombinant CARM1 proteins, autoradiography. Particulars: 3H-SAM, 1–4 h, 30 °C. Format: biochemical, human. As to the method:
The FL and N-terminal domain-deleted version of human CARM1 cDNAs, and other PRMT FL cDNAs were cloned into pFN21K Halo Tag CMV Flexi mammalian expression vector (Promega, Madison, WI) using the unique Sgfl and Pmel site[55]. To express the protein, DNA constructs were transiently transfected into HEK293T CARM1 KO cells in 15 cm dishes using transIT-LT1 reagent (Mirus Bio, Madison, WI) according to the manufacturer's protocol. Proteins were allowed to express for 48 h. Cell pellets were then collected and lysed in lysis buffer (50 mM HEPES, pH 7.5, 150 mM NaCl, 0.005% NP-40, 0.5 mM EDTA, supplemented with 1 × protease inhibitor cocktail before use). The cells were sonicated on ice using a Branson Sonifier 450 with a microtip at 35% amplitude (10 s on, 30 s off, 6 cycles). […] The resin was centrifuged at 3,000 r.p.m. for 5 min, and the supernatant containing the cleaved protein was collected and protein concentration was determined using the Bradford assay (Thermo Scientific, Rockford, IL). Protein purity was assessed by running SDS–PAGE and Coomassie Blue staining.
Purified recombinant enzyme and substrates were incubated in methylation buffer (50 mM Tris-HCl, pH 8.0, 100 mM NaCl and 0.5 mM EDTA) for 1–4 h at 30 °C in the presence of 1 μl radioactive S-adenosyl-L-[methyl-^3H] methionine. […] Protein methylation was detected by autoradiography.

For the next assay, the system named is HEK293T CARM1 KO cells. The assay is described as follows: Rescue of endogenous BAF155 and MED12 methylation, transient transfection, western blot. Format: cell-based. Particulars: transient expression in HEK293T CARM1 KO cells. On the procedure: Next, we transiently transfected FL and the two aforementioned CARM1 truncations in HEK293T CARM1 KO cells and measured substrate methylation by western blotting with ADMA antibodies.
Cells were collected by trypsinization, washed with Dulbecco's phosphate buffer saline (Life Technologies, Carlsbad, CA) and lysed by suspension in lysis buffer (50 mM Tris-HCl pH 8.0, 150 mM NaCl, 10% glycerol, 0.5% Triton X-100 and 1 × protease inhibitor cocktail (Sigma-Aldrich)). After brief sonication followed by centrifugation, total protein was quantified using the BioRad Protein Assay (BioRad, Hercules, CA), and 20 μg protein was resolved by SDS–PAGE. Proteins were transferred to a nitrocellulose membrane for 1.5 h at 350 mA. Membranes were blocked with 5% nonfat milk at room temperature for 1 h and incubated overnight with diluted primary antibody at 4 °C. Membranes were then washed and incubated with HRP-conjugated secondary antibody for 1 h at room temperature. Signal was visualized by enhanced chemiluminescence reagents (Thermo Scientific, Rockford, IL) and X-ray film exposure followed by scanning and digitalization. Me-PABP1 and PABP1 antibodies, me-BAF155 antibody[20] and me-MED12 antibody[30] were generated previously in the Xu lab. FLAG antibody (catalogue #F7425) was purchased from Sigma and used at a dilution of 1:5,000; BAF155 antibody (sc-10756) was purchased from Santa Cruz and used at a dilution of 1:1,000; MED12 antibody (ab70842) was purchased from Abcam (Cambridge, MA) and used at 1:1,000 dilution.

Assay [2] has as its system MCF7 CARM1 KO cells. Nature of the assay: Quantitative MS of ADMA-containing peptides in MCF7 CARM1 KO cells expressing CARM1 28-608 or CARM1 140-608, and in CARM1 KO. It counts as cell-based, human. Particulars: stable CARM1 140–608 in MCF7 CARM1 KO cells; reference CARM1 28–608; three biological replicas.
In assay [3] the test system is MCF7 CARM1 KO cells. The assay is described as follows: In vivo methylation of BAF155, stable expression, western blot. It counts as cell-based, human. The text has this:
We next sought to assess the impact of CARM1 N-terminal deletion in cells stably expressing mutant enzymes. […] To quantify the affected ADMA-containing peptides in MCF7 CARM1 KO and CARM1 140–608 expressing cells, we employed our quantitative MS method (Fig. 1a) using CARM1 28–608 as a reference for normalization (Supplementary Data 4). […] The magnitude of reduction in CARM1 140–608 cells, however, was slightly less than that in the CARM1 KO cells. […] As indicated by R^2 of 0.65, noticeable differences existed between the levels of ADMA-containing peptides in cells expressing the N-terminal truncation of CARM1 and CARM1 28–608 control (Supplementary Fig. 4f).
Cells were collected by trypsinization, washed with Dulbecco's phosphate buffer saline (Life Technologies, Carlsbad, CA) and lysed by suspension in lysis buffer (50 mM Tris-HCl pH 8.0, 150 mM NaCl, 10% glycerol, 0.5% Triton X-100 and 1 × protease inhibitor cocktail (Sigma-Aldrich)). After brief sonication followed by centrifugation, total protein was quantified using the BioRad Protein Assay (BioRad, Hercules, CA), and 20 μg protein was resolved by SDS–PAGE. Proteins were transferred to a nitrocellulose membrane for 1.5 h at 350 mA. Membranes were blocked with 5% nonfat milk at room temperature for 1 h and incubated overnight with diluted primary antibody at 4 °C. […]
For orientation: A western blot detects proteins with antibodies after separation by electrophoresis.

B1: CARM1 140–608: CARM1 140–608 lacks the first 140 residues encompassing the EVH1 domain (protein)
chain: RTEESSAVQYFQFYGYLSQQQNMMQDYVRTGTYQRAILQNHTDFKDKIVLDVGCGSGILSFFAAQAGARKIYAVEASTMAQHAEVLVKSNNLTDRIVVIPGKVEEVSLPEQVDIIISEPMGYMLFNERMLESYLHAKKYLKPSGNMFPTIGDVHLAPFTDEQLYMEQFTKANFWYQPSFHGVDLSALRGAAVDEYFRQPVVDTFDIRILMAKSVKYTVNFLEAKEGDLHRIEIPFKFHMLHSGLVHGLAFWFDVAFIGSIMTVWLSTAPTEPLTHWYQVRCLFQSPLFAKAGDTLSGTCLLIANKRQSYDISIVAQVDQTGSKSSNLLDLKNPFFRYTGTTPSPPPGSHYTSPSENMWNTGSTYNLSSGMAVAGMPTAYDLSSVIASGSSVGHNNLIPLANTGIVNHTHSRMGSIMSTGIVQGSSGAQGSGGGSTSAHYAVNSQFTMGGPAISMASPMSIPTNTMHYGS
modifications: left off: FLAG, end not stated, kept
notes: CARM1 140–608 lacks the first 140 residues encompassing the EVH1 domain
Regarding B1, the “Total protein methylation of cell lysate” value in assay [1] is “substantial reduction of total protein methylation”. The “Methylation of endogenous BAF155 and MED12” value in the assay on HEK293T CARM1 KO cells was “failed to restore endogenous protein methylation”. The “Abundance of ADMA-containing peptides” value in the assay on MCF7 CARM1 KO cells [2] was “massive reduction in abundances of ADMA-containing peptides”. Further, the “In vivo methylation of BAF155” value in the assay with MCF7 CARM1 KO cells [3] is “impaired in vivo methylation of BAF155”.
